# Article PMC10746679, “Mutations F352A and Y528A in human HSP90α reduce fibronectin association and fibrillogenesis in cell-derived matrices” (Cell Stress & Chaperones, 2023)
# Biological target: Full-length fibronectin (UniProt P02751 32-2477)
# Experiment: ELISA; solid-phase binding assay; FN-FL or FN70 coated on high-binding plates (25 μg/ml by the legend), blocked with 3% BSA in Buffer A; wild type or mutant His-HSP90α at varying concentrations added overnight at 4 °C; detected with anti-HSP90α antibody, HRP secondary, absorbance 450 nm
# Conditions: both partners purified
# Sequence of Full-length fibronectin (P02751 other isoform, or with tags, fused parts or gaps, chain 1 of 2): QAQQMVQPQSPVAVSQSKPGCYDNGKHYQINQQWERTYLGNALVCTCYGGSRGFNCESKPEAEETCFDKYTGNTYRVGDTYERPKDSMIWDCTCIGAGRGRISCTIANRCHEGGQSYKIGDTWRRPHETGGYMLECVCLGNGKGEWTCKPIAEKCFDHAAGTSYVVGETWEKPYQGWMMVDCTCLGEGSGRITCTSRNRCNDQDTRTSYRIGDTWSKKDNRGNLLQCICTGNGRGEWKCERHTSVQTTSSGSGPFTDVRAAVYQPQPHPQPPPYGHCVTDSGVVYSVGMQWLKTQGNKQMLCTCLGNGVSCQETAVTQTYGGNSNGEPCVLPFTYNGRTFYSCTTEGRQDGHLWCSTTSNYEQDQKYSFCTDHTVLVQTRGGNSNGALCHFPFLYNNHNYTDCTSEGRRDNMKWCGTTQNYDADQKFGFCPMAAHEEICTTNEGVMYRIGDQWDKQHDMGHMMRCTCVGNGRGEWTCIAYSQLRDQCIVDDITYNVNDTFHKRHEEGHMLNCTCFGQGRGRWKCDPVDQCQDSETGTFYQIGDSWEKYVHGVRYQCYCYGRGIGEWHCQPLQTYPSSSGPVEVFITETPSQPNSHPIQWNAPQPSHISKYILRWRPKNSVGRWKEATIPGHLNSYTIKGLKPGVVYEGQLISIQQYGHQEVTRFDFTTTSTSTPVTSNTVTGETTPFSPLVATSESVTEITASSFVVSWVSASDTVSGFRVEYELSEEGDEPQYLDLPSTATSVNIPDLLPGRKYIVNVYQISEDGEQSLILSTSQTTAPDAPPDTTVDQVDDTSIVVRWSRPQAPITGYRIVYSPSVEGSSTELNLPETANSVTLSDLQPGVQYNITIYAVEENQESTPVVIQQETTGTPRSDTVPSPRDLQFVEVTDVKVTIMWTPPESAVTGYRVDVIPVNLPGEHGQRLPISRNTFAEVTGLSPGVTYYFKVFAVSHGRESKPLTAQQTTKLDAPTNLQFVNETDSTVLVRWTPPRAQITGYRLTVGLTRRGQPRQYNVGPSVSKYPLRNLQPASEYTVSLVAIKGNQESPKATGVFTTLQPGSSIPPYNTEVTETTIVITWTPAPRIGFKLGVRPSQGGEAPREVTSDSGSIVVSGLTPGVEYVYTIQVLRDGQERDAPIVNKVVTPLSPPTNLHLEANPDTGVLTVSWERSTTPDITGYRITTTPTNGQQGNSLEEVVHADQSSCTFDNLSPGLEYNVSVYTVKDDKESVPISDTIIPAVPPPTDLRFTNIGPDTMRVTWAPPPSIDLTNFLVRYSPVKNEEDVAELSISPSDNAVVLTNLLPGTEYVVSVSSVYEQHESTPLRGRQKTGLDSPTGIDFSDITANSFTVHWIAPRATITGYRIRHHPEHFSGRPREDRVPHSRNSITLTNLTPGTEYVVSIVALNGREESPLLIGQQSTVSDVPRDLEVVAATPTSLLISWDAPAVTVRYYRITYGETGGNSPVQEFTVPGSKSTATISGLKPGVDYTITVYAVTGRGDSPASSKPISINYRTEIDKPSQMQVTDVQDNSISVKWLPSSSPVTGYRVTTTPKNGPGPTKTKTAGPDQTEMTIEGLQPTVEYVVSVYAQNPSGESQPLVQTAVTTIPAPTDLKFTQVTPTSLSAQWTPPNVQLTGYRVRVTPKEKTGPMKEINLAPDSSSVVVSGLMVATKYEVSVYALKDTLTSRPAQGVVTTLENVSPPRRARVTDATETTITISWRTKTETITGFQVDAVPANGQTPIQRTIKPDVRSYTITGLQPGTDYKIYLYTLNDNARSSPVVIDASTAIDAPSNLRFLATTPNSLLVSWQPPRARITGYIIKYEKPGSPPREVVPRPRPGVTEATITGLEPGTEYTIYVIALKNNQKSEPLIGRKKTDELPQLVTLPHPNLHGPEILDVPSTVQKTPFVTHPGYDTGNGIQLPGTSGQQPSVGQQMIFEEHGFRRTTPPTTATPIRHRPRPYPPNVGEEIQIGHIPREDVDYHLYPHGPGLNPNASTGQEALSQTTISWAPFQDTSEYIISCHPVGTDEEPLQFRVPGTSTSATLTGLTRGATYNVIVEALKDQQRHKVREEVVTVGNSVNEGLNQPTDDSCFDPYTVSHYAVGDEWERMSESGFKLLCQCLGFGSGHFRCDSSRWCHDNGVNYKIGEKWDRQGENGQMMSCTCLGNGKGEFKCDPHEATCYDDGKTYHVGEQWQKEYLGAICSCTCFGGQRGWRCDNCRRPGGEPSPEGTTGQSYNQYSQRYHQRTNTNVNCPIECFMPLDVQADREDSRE
# Sequence of Full-length fibronectin (P02751 other isoform, or with tags, fused parts or gaps, chain 2 of 2): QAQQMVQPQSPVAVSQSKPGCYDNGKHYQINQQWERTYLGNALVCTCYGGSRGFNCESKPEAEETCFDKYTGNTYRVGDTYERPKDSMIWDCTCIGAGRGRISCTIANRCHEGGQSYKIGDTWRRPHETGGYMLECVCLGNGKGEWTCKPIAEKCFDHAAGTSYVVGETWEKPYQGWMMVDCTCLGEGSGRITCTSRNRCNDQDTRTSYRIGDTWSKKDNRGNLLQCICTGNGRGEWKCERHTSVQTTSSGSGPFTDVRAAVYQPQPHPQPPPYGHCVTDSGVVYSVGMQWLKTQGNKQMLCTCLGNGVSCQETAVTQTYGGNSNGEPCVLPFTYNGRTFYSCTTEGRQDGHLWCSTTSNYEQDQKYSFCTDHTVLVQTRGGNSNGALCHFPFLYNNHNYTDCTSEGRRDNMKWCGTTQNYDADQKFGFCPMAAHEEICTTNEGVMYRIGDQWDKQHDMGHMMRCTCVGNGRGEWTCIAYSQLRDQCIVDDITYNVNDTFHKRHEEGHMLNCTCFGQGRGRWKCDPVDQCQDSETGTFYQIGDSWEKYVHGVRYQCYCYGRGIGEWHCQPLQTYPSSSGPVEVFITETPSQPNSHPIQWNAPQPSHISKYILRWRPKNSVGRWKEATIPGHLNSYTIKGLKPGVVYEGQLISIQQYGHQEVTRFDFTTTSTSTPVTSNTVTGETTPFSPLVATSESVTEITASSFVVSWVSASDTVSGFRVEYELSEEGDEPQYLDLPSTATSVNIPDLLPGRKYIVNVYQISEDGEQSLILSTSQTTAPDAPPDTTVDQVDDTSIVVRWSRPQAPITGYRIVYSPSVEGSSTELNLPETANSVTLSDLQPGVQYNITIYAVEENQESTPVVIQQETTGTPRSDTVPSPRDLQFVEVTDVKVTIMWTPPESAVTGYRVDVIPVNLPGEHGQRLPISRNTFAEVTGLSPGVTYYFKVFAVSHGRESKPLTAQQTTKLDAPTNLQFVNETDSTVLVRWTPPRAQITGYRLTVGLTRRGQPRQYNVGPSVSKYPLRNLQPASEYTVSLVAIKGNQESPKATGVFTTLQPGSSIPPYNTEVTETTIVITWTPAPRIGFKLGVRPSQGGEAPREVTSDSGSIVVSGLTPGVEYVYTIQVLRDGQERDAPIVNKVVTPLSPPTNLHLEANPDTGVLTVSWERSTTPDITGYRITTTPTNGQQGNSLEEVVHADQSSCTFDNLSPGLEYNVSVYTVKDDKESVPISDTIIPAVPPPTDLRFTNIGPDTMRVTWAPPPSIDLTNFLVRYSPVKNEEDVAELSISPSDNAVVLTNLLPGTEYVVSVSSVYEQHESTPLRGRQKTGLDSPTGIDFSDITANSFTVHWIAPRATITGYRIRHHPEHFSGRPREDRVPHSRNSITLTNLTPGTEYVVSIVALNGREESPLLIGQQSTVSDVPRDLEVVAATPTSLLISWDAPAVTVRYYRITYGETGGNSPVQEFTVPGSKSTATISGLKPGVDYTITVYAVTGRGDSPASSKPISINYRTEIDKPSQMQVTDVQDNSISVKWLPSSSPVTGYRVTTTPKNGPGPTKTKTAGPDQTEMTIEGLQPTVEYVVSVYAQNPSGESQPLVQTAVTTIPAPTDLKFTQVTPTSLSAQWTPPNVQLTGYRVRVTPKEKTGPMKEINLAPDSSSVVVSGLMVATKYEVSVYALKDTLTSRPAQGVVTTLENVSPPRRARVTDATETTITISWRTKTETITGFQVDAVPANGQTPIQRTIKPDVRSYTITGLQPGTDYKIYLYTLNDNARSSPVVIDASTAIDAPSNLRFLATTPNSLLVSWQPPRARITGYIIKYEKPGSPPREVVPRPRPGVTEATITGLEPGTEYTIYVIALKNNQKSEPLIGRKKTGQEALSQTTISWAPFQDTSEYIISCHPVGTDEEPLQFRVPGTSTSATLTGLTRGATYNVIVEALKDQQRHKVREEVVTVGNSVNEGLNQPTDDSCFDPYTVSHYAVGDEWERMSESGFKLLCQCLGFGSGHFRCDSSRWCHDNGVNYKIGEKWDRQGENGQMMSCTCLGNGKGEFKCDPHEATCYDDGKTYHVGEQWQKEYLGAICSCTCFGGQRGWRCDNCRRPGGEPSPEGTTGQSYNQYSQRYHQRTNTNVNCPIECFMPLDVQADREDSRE
row,Binder,percent reduction in binding against wild type His-HSP90α
1,"His-HSP90α-F352A (natural protein, Heat shock protein HSP 90-alpha, human, point mutant of the full-length His-HSP90α) not shown",~40%
2,"His-HSP90α-E353A (natural protein, Heat shock protein HSP 90-alpha, human, point mutant of the full-length His-HSP90α) not shown",~25%
3,"His-HSP90α-R620A (natural protein, Heat shock protein HSP 90-alpha, human, point mutant of the full-length His-HSP90α) not shown",~25%

# Other lines, results leading:
row,percent reduction in binding against wild type His-HSP90α,Binder
1,~25%,"His-HSP90α-H450A (natural protein, Heat shock protein HSP 90-alpha, human, point mutant of the full-length His-HSP90α) not shown"
2,~25%,"His-HSP90α-Y528A (natural protein, Heat shock protein HSP 90-alpha, human, point mutant of the full-length His-HSP90α) not shown"
